According to patent US9932404B2:

Legend:
[1] = biological target: full-length murine TLR3 (mouse)
[2] = biological target: human TLR3 extracellular domain (amino acids 1-703) with C-terminal poly-histidine tag (human); test: ELISA, coated huTLR3 ECD
[3] = biological target: human TLR3 extracellular domain (amino acids 1-703) with C-terminal poly-histidine tag (human); test: Biacore (data not shown)

| Binder | IC50, poly(I:C)-induced ISRE luciferase reporter [1] [µg/mL] | EC50 [2] [µg/mL] | Kd [3] [nM] |
| --- | --- | --- | --- |
| mAb c1811 (antibody, V domains shown) VH: EVQLVASGGGLVKPGASLKLSCVASGFTFSDYWMAWVRQTPGKPMEYIGDIKSDGSKVNYAPSLKNRFTISRDNARTTLYLQMSNVRSEDTATYYCNRDIGPDWYFDFWGPGTMVTVSS VL: DIQMTQSPTSLSASLGETVTIECRASEDIYNGLAWYQQKPGKSPQLLIYDSNSLHTGVPSRFSGRGSGTQYSLRINSLQSEDVASYFCQQYYDYPLTFGSGTKLEIKR | 0.7 |  |  |
| mAb 16 (antibody, V domains shown) VH: QVELVQSGAEVKKPGESLKISCKGSGYSFNNYWIGWVRQMPGKGLEWMGIIDPGDSYTNYAPSFQGQVTISADKSISTAYLQWSSLKASDTAMYYCARNIYEFDYWGQGTLVTVSS VL: DIQMTQSPSSLSASVGDRVTITCRASQGISSWLNWYQQKPGKAPKLLIYGASNLQSGVPSRFSGSGSGTDFTLTISSLQPEDFAVYYCQQYDDFSITFGQGTKVEIK |  | 0.0437 | < 10 |
| mAb 2 (antibody, V domains shown) VH: QVELVQSGAEVKKPGESLKISCKGSGYSFNNYWIGWVRQMPGKGLEWMGIIDPQDSWTNYAPSFQGQVTISADKSISTAYLQWSSLKASDTAMYYCARNIYEFDYWGQGTLVTVSS VL: DIQMTQSPSSLSASVGDRVTITCRASQGISSWLNWYQQKPGKAPKLLIYGASNLQSGVPSRFSGSGSGTDFTLTISSLQPEDFAVYYCQQYDDFSITFGQGTKVEIK |  | 0.0531 | < 10 |
| mAb 8 (antibody, V domains shown) VH: QVELQQSGPGLVKPSQTLSLTCAISGDSVSSNSAAWGWIRQSPGRGLEWLGIIQTRSKWYNDYAVSVKSRITINPDTSKNQFSLQLNSVTPEDTAVYYCARYSYPFYSIDYWGQGTLVTVSS VL: DIELTQPPSVSVAPGQTARISCSGDNIGSYYVHWYQQKPGQAPVLVIYEDSERPSGIPERFSGSNSGNTATLTISGTQAEDEADYYCQSYDSQFSFGVFGGGTKLTVL |  | 0.0186 | < 10 |
| mAb 11 (antibody, V domains shown) VH: QVELQQSGPGLVKPSQTLSLTCAISGDSVSSNSAAWGWIRQSPGRGLEWLGIIQKRSKWYNNYAVSVKSRITINPDTSKNQFSLQLNSVTPEDTAVYYCARYSYPFYSIDYWGQGTLVTVSS VL: DIELTQPPSVSVAPGQTARISCSGDNIGSYYVHWYQQKPGQAPVLVIYEDSERPSGIPERFSGSNSGNTATLTISGTQAEDEADYYCSSYDEPNFNVFGGGTKLTVL |  | 0.0263 | < 10 |
| mAb 9 (antibody, V domains shown) VH: QVELQQSGPGLVKPSQTLSLTCAISGDSVSSNSAAWGWIRQSPGRGLEWLGIIQIRSKWYNDYALSVKSRITINPDTSKNQFSLQLNSVTPEDTAVYYCARYSYPFYSIDYWGQGTLVTVSS VL: DIELTQPPSVSVAPGQTARISCSGDNIGSYYVHWYQQKPGQAPVLVIYEDSERPSGIPERFSGSNSGNTATLTISGTQAEDEADYYCQSYDSQFSFGVFGGGTKLTVL |  | 0.0226 | < 10 |
| mAb 18 (antibody, V domains shown) VH: QVELQQSGPGLVKPSQTLSLTCAISGDSVSSNSAAWGWIRQSPGRGLEWLGIIQKRSKWYNNYAVSVKSRITINPDTSKNQFSLQLNSVTPEDTAVYYCARYSYPFYSIDYWGQGTLVTVSS VL: DIELTQPPSVSVAPGQTARISCSGDNIGSYYVHWYQQKPGQAPVLVIYEDSERPSGIPERFSGSNSGNTATLTISGTQAEDEADYYCQSYDSQFSFGVFGGGTKLTVL |  | 0.00968 | < 10 |
| mAb 12 (antibody, V domains shown) V domain 1: QVELQQSGPGLVKPSQTLSLTCAISGDSVSSNSAAWGWIRQSPGRGLEWLGIIQKRSKWYNNYAVSVKSRITINPDTSKNQFSLQLNSVTPEDTAVYYCARYSYPFYSIDYWGQGTLVTVSS V domain 2: DIELQQSGPGLVKPSQTLSLTCAISGDSVSSNSAAWGWIRQSPGRGLEWLGIIQKRSKWYNNYAVSVKSRITINPDTSKNQFSLQLNSVTPEDTAVYYCARYSYPFYSIDYWGQGTLVTVSS |  | 0.0256 | < 10 |
| mAb 10 (antibody, V domains shown) VH: QVELQQSGPGLVKPSQTLSLTCAISGDSVSSNSAAWGWIRQSPGRGLEWLGIIQKRSKWYNNYAVSVKSRITINPDTSKNQFSLQLNSVTPEDTAVYYCARYSYPFYSIDYWGQGTLVTVSS VL: DIELTQPPSVSVAPGQTARISCSGDNIGSYYVHWYQQKPGQAPVLVIYEDSERPSGIPERFSGSNSGNTATLTISGTQAEDEADYYCQSYDTPVYSVFGGGTKLTVL |  | 0.0158 | < 10 |
| mAb 4 (antibody, V domains shown) VH: QVELQQSGPGLVKPSQTLSLTCAISGDSVSTRSAAWGWIRQSPGRGLEWLGKISYRSRWYNDYAVSVKSRITINPDTSKNQFSLQLNSVTPEDTAVYYCARHTYPYLSFDVWGQGTLVTVSS VL: DIELTQPPSVSVAPGQTARISCSGDALGGYFVSWYQQKPGQAPVLVIYDDDNRPSGIPERFSGSNSGNTATLTISGTQAEDEADYYCASYDGDEFTVFGGGTKLTVL |  | 0.0128 | < 10 |
| mAb 17 (antibody, V domains shown) VH: QVELQQSGPGLVKPSQTLSLTCAISGDSVSTRSAAWGWIRQSPGRGLEWLGRIYMRSKWYNDYAVSVKSRITINPDTSKNQFSLQLNSVTPEDTAVYYCARHTYPYLSFDVWGQGTLVTVSS VL: DIELTQPPSVSVAPGQTARISCSGDALGGYFVSWYQQKPGQAPVLVIYDDDNRPSGIPERFSGSNSGNTATLTISGTQAEDEADYYCASYDGDEFTVFGGGTKLTVL |  | 0.0138 | < 10 |
| mAb 7 (antibody, V domains shown) VH: QVELQQSGPGLVKPSQTLSLTCAISGDSVSTRSAAWGWIRQSPGRGLEWLGRIYMRSKWYNDYAVSVKSRITINPDTSKNQFSLQLNSVTPEDTAVYYCARHTYPYLSFDVWGQGTLVTVSS VL: DIELTQPPSVSVAPGQTARISCSGDALGGYFVSWYQQKPGQAPVLVIYDDDNRPSGIPERFSGSNSGNTATLTISGTQAEDEADYYCSSYDSDSLTVFGGGTKLTVL |  | 0.0161 | < 10 |
| mAb 6 (antibody, V domains shown) VH: QVELQQSGPGLVKPSQTLSLTCAISGDSVSTRSAAWGWIRQSPGRGLEWLGRIYMRSKWYNDYAVSVKSRITINPDTSKNQFSLQLNSVTPEDTAVYYCARHTYPYLSFDVWGQGTLVTVSS VL: DIELTQPPSVSVAPGQTARISCSGDALGGYFVSWYQQKPGQAPVLVIYDDDNRPSGIPERFSGSNSGNTATLTISGTQAEDEADYYCGSYDSNSLTVFGGGTKLTVL |  | 0.019 | < 10 |
| mAb 3 (antibody, V domains shown) VH: QVELQQSGPGLVKPSQTLSLTCAISGDSVSTRSAAWGWIRQSPGRGLEWLGRIHRRSKWYNDYAVSVKSRITINPDTSKNQFSLQLNSVTPEDTAVYYCARHTYPYLSFDVWGQGTLVTVSS VL: DIELTQPPSVSVAPGQTARISCSGDALGGYFVSWYQQKPGQAPVLVIYDDDNRPSGIPERFSGSNSGNTATLTISGTQAEDEADYYCASYDGDEFTVFGGGTKLTVL |  | 0.0234 | < 10 |
| mAb 5 (antibody, V domains shown) VH: QVELQQSGPGLVKPSQTLSLTCAISGDSVSTRSAAWGWIRQSPGRGLEWLGRIYMRSKWYNDYAVSVKSRITINPDTSKNQFSLQLNSVTPEDTAVYYCARHTYPYLSFDVWGQGTLVTVSS VL: DIELTQPPSVSVAPGQTARISCSGDALGGYFVSWYQQKPGQAPVLVIYDDDNRPSGIPERFSGSNSGNTATLTISGTQAEDEADYYCQSYDEDSATVFGGGTKLTVL |  | 0.0199 | < 10 |
| mAb 13 (antibody, V domains shown) VH: QVELVQSGAEVKKPGESLKISCKGSGYSFTNYWVGWVRQMPGKGLEWMGFIDPSDSYTNYAPSFQGQVTISADKSISTAYLQWSSLKASDTAMYYCARELYQGYMDTFDSWGQGTLVTVSS VL: DIQMTQSPSSLSASVGDRVTITCRASQSIGLYLAWYQQKPGKAPKLLIYAASSLQSGVPSRFSGSGSGTDFTLTISSLQPEDFATYYCQQGESILSTFGQGTKVEIK |  | 0.0235 | < 10 |
| mAb 14 (antibody, V domains shown) VH: QVELVQSGAEVKKPGESLKISCKGSGYSFTNYWVGWVRQMPGKGLEWMGFIDPSDSYTNYAPSFQGQVTISADKSISTAYLQWSSLKASDTAMYYCARELYQGYMDTFDSWGQGTLVTVSS VL: DIQMTQSPSSLSASVGDRVTITCRASQSIGLYLAWYQQKPGKAPKLLIYAASSLQSGVPSRFSGSGSGTDFTLTISSLQPEDFATYYCQQAETVSPTFGQGTKVEIKR |  | 0.0336 | < 10 |
| mAb 19 (antibody, V domains shown) VH: QVELVQSGAEVKKPGESLKISCKGSGYSFTNYWVGWVRQMPGKGLEWMGFIDPSDSYTNYAPSFQGQVTISADKSISTAYLQWSSLKASDTAMYYCARELYQGYMDTFDSWGQGTLVTVSS VL: DIQMTQSPSSLSASVGDRVTITCRASQSIGLYLAWYQQKPGKAPKLLIYAASSLQSGVPSRFSGSGSGTDFTLTISSLQPEDFATYYCQQYGSVSITFGQGTKVEIK |  | 0.0665 | < 10 |
| mAb 1 (antibody, V domains shown) V domain 1: GVELVQSGAEVKKPGESLKISCKGSGYSFTDNWISWVRQAPGKGLEWMGVIDPSDSYTNYAPSFQGQVTISADKSISTAYLQWSSLKASDTAMYYCAREWGIGGMVDIWG V domain 2: DIVLTQSPATLSLSPGERATLSCRASQYIDISYLAWYQQKPGQAPRLLIYDASSRATGVPARFSGSGSGTDFTLTISSLEPEDFAVYYCQQYYSLSITFGQGTKVEIK |  | 0.0172 | < 10 |
